# Experimental data: the RNAGym collection of RNA variant scans (doi:10.1073/pnas.2313332121)
# B1: TPR t1 (parent)
# chain: GACCAAUCUGCCCUCAGAGCUCGAGAACAUCUUCGGAUGCAGAGGAGGCAGGCUUCGGUGGCGCGAUAGCGCCAACGUCCUCAACCUCCAAUGCAUCCCACCACAUGAUGAUGCCUGAAGAGCCUUGGUUUUUUG
# Variants of: B1
# Experiment: polymerase ribozyme fitness, log enrichment relative to wild type (log ratio); higher = more active; in vitro selection for triplet polymerase activity
# Procedure, shortened: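 Only genotypes with ≥10 input reads and ≥1 read per output were kept after Illumina sequencing of input and output libraries. These libraries were PCR-built, transcribed mutants of each subunit of a heterodimeric triplet polymerase ribozyme, each put through one triplicate in vitro selection round with frozen incubation at −7 °C, gel excision of extended constructs, streptavidin-bead capture and RT-PCR. Fitness is a logarithmic ratio of genotype enrichment to wild-type enrichment, from inverse-variance-weighted replicate averages, with the logarithm in base 2.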
row,Variant,polymerase ribozyme fitness (log ratio)
1,C3U C40U U54C U92G,-3.03
2,A2G U78A G128A,-2.62
3,C3U C64U G71U C85G A121U,-4.22
4,A2G C40U U78A C86U G117A,-3.78
5,A2U C72G C101G C124A,-2.28
6,A2U C11U G57U A91U,-4.18
7,A2U A50G C73U U78A,-3.42
8,A2C G63A,-2.37
9,C3U C40U G117U,-3.25
10,A2G A50C A75G G113U,-3.77
11,A2C G128U,-2.55
12,A2U U21A C49U,-4.09
13,A2C G69A C114A,-4.75
14,A2G U9G U21C G128A,-4.35
15,A2G A46C,-0.998
16,A2C G71A,-2.36
17,A2C G71U,-2.08
18,A2G C73U,-0.754
19,A2C C101A U106A C115U A119G,0.154
20,C3A C79A G120U G128A,-3.06
21,C3G U9A C85A,-2.07
22,A2G G39U,-1.18
23,A2C C3A U9A C20U G120U,-0.418
24,C3G U96C G113U,-6.42

row,Variant,polymerase ribozyme fitness (log ratio)
1,A2C C49A U87A C88A,-3.11
2,C3U C12G G71U,-0.231
3,C3U A50C C73A C85U G120U,-1.28
4,A2G G57C U59G A100U U106C,-0.973
5,C3U G45U G60U A91G C123U,-2.3
6,A2U C11G C28U G61A,-2.82
7,A2G C12U G17C U78C C86G,-4.66
8,C3U C13U C85U U87A A95C,-2.29
9,C3A C15A,-3.67
10,C3G A16U U38G,-4.66
11,C3G C11A C12U G58C C62U,-4.45
12,A2C C4U C13A C49A C56A G71A U87A,-6.32
13,A2C U87G,-1.65
14,C3A G71A U130C,-0.935
15,C3U A37U G61A G117A,-1.3
16,C3A G60U,-1.28
17,C3A G60A,-1.52
18,C3U C53A C72G,-1.22
19,C3U C20A A46G C72G G113U,-0.27
20,C3A U7G U32C G60U G93C A111C,-2.96
21,C3U C88A,-1.53
22,C3U C11U,-0.785
23,C3U C8G G48U G93U,-0.42
24,C3U A29G C53U G57C C86G,-4.64

row,Variant,polymerase ribozyme fitness (log ratio)
1,C3G G48C C89U U132C,-1.66
2,A2U A5C,-2.09
3,A2G U9G U106G U112C U130A,-0.197
4,C3G G71C A90U A95U U112A,-3.23
5,C3G A46U,-2.71
6,C3A A5U A29G U116C,-2.92
7,A2U C13A,-3.76
8,A2U C62U,-2.96
9,C3G C12G A83C U106A,-2.23
10,C3U G39C G44A G77U U78A A119G,-1.19
11,C3A A105G,-4.78
12,C3U C40G G42U C82U C89U C94U,-3.64
13,C3A A41U C70A A91C U112G U125G G127U,-4.59
14,A2C C12G A46C C72U G113U,-7.24
15,C3A G61U C115A,-1.78
16,C3G G19A C20G C88G U112G C115U,-5.61
17,A2G C114A C124A,-0.647
18,A2C C11U C70G G120A,-3.19
19,C3U C40G C115A,-1.95
20,C3G C88G,-2.34
21,A2C U9G C20A G71A A121U,-3.49
22,A2U C79U C104A,-4.26
23,C3A C72U C94G,-3.51
24,A2C G63U C124U,-1.65

row,Variant,polymerase ribozyme fitness (log ratio)
1,C3A A5U G36C G47C A75U G77A A105G U106A C123U U130C,-2.36
2,C3A G23C C40A A84C G110C,-5.53
3,C3G A41C,-3.54
4,C3G C124A,-0.505
5,C3U C20A G57A G60U G117A,-4.91
6,C3G G39A G51U G69U C79A U130G,-3
7,A2G C79A,-0.844
8,A2U C72A,-2.16
9,A2U A37U U54A G69U U78G A105G,-3.36
10,A2C C3G A90U C115U,-3.68
11,A2G A91U,-1.93
12,C3A U9G G44A C62A C88G G113A C123G,-4.87
13,A2G A5C G60A A74U C86U G135U,-1.91
14,C3U G10A U21C G61A C98U A119U,-2.55
15,A2C G61A C94U,-0.931
16,C3A C13U C34A G58C G135U,-4.09
17,A2C C12G G42U C49A C73A C82U A111C,-5.3
18,A2C G57C G71A U92G G120A,-6.04
19,A2C C82A,-2.04
20,A2U C22G U33C C34A,-5.51
21,A2U G35U,-6.73
22,A2G U32C C40G C49A,-1.76
23,C3A C4G G10A G61A C123G,0.689
24,A2U A5C G69A C86U,-6.09

row,Variant,polymerase ribozyme fitness (log ratio)
1,A2G U78A,0.0128
2,A2C C8A U131A,-1.54
3,C3A C8U,-1.3
4,C3U A24G G47C,-3.61
5,A2G C8G A121U U129G,0.138
6,C3A C62U A105G,-4.05
7,A2U G45U,-3.96
8,A2G G52A C99U,-3.53
9,C3A C12U U54A G69U G77C,-3.81
10,A2G C8G C70G,-2.83
11,A2G G77A C80A C124A,-0.514
12,A2G C12U G47A G63U G113U,-4.51
13,A2U C8G,-0.639
14,A2C C11A G48U C72U C80U G120U,-3.83
15,C3G C8G C73U C101G G120U,-0.772
16,C3U G47A G61A A84C,-0.617
17,C3U C102U G117U,-4.61
18,A2G A37C A111G,-1.49
19,C3A G57A C114U,-4.29
20,C3U A37U C40A G60U,-1.23
21,C3U A41C U125A U126C,-3.37
22,A2U C94U C104U,-2.44
23,C3A G10A A75G C86G C98U G122A,-2.58
24,A2G G69A C89G G110U,-6

row,Variant,polymerase ribozyme fitness (log ratio)
1,C3G C13A,-3.57
2,C3U G10U A41C C115U U126G,-6.14
3,C3A G57C G71U A90U C114A U132C,-2.98
4,A2U C13U A41G A43U C49U U92C G93C C115U U131G U132A,-4.38
5,A2C C28U G71A U78A A90G,-5.83
6,C3A A111C G128U U129A,-1.89
7,C3A C62U G93C,-2.92
8,A2U U9G,-1.32
9,C3A U9C C11A C49G U109A U126G,-6.11
10,C3A G61A,-1.23
11,A2C G63C U130A,-2.69
12,C3A A6G C13U C15G U59C,-3.21
13,A2C A6C C8A G71A A84U U129A,-2.03
14,A2C C3A U9A C20U G63C G120U,-1.07
15,A2U C8U A41C C56G G77U G122A,-2.93
16,A2U C13U C72G C114U,-3.41
17,A2G C4G C8G G47U U54C,-3.05
18,A2C C12G G69C G110U G128C,-5.29
19,A2C C8A G42C U54A U78A C98U G120A G127C,-2.04
20,A2C G71A C115A C123U,-2.71
21,C3A A16U C73G,-3.81
22,C3U C28A U112A,-2.92
23,C3U C12A G61C A84C U130C U133G,-2.37
24,A2G C22U G61A A75U,-4.04

row,Variant,polymerase ribozyme fitness (log ratio)
1,C3U G17U G47A U96A U106A C115A U130G,-2.25
2,C3U A29C G61U,-2.81
3,C3A G39A A68G G128U,-4.5
4,A2U G63A A84U C86U,-3.92
5,A2G G110A C124A,-0.428
6,A2U A83G,-3.47
7,A2G C64U C89G U112A,-1.2
8,C3U C12U G110A,-0.836
9,A2U C20U,-3.71
10,C3A C12U,-0.986
11,A2G G52U A91U A95C,-3.47
12,C3A G110C U112A G117A U132C,-6.59
13,A2U C56A C64U G120C,-3.86
14,C3A C76G G93A C115G,-5.76
15,C3U C12A G60A,-1.22
16,C3A A74C,-2.99
17,A2U G77C U116A C124A U130C,-0.208
18,C3A C40A G47A G60A A75U C86U C97U C123A U132A,-1.07
19,C3U G39C G44A G63A G77U U78A A119G,-2.88
20,C3A G36C G63A U130C,-2.1
21,A2G C34U,-4.37
22,C3G C28U G61U G120C U125G,-4.18
23,C3U G17U C64U,-3.03
